# In US20240285784A1, “PEPTIDIC CONJUGATES OF SN38 USEFUL IN THE TREATMENT OF CANCER” (FUNDACIÓ INSTITUT DE RECERCA BIOMÈDICA (IRB BARCELONA), priority 2020, published 2024):
# Like-named read-outs stand apart in the source and are kept apart here. *1 amine or outer side, *2 acyl side, *3 side chain or, on linkers, in order; H or OH if unused. Where a SMILES comes first, the peptide text is derived from it. Bridges are numbered along the chain shown (N, C = ends). [ ]: non-standard residue; d: D form. The star is where a group is joined. ξ: configuration not given here. X6 = CCc1c2c(nc3ccc(OC(=O)OCc4ccc(NC(=O)[C@H](CCCNC(N)=O)NC(=O)[C@@H](NC(=O)COCC(=O)*)C(C)C)cc4)cc13)-c1cc3c(c(=O)n1C2)COC(=O)[C@]3(O)CC; X3 = CCc1c2c(nc3ccc(O)cc13)-c1cc3c(c(=O)n1C2)COC(=O)[C@@]3(CC)OC(=O)CCCCn1cc(CCCC(=O)NCCCOCCOCCOCCSCN*)nn1; X5 = CCc1c2c(nc3ccc(OC(=O)CCCCn4cc(CCCC(=O)NCCCOCCOCCOCCSCN*)nn4)cc13)-c1cc3c(c(=O)n1C2)COC(=O)[C@]3(O)CC; X2 = CCc1c2c(nc3ccc(O)cc13)-c1cc3c(c(=O)n1C2)COC(=O)[C@@]3(CC)OC(=O)CCC(=O)*; X7 = CCc1c2c(nc3ccc(OC(=O)*)cc13)-c1cc3c(c(=O)n1C2)COC(=O)[C@]3(O)CC; X4 = CC(O)CC(N[*:1])C(=O)[*:2]; Suc = O=C(CCC(=O)[*:2])[*:1]; Nva = CCC[C@H](N)C(=O)O; ξE = NC(CCC(=O)O)C(=O)O; Dap = NC[C@H](N)C(=O)O; ξD = NC(CC(=O)O)C(=O)O; ξN = NC(=O)CC(N)C(=O)O; ξK = NCCCCC(N)C(=O)O; ξT = CC(O)C(N)C(=O)O; ξDap = NCC(N)C(=O)O; ξP = O=C(O)C1CCCN1; ξA = CC(N)C(=O)O
# What was measured:
# [1] = Evaluation of solubility in water; assay type: physicochemical; settings: at 1 mg/mL
# Protocol: 25 mg of SN38-linker A-MiniAp4 were dissolved in H2O, showing a completely transparent solution. This means that SN38-linker A-MiniAp4 has a solubility in water higher than 5 mg/mL, more than 400-fold the solubility in water described for SN38 (Mol. Pharmaceutics, 2016, 13, 379-390).
# [2] = test system: pediatric high-grade glioma HSJD-GBM-001; assay: cells; assay type: cell-based; settings: MTS, 72 h incubation, Example 11, Table 4, read-out: IC50 values of compounds
# Description: (§1) Cancer cell lines were obtained from the repository maintained at Hospital Sant Joan de Deu (Barcelona, Spain). Cancer cell lines used in these experiment included cancer types of adult glioma (U373 and U87 cell lines), pediatric gliomas including diffuse intrinsic pontine glioma (HSJD-DIPG-007, HSJD-DIPG-011), and pediatric high-grade glioma (HSJD-GBM-001), retinoblastoma (HSJD-RBT-5, HSJD-RBT-7 and HSJD-RBT-14), Ewing sarcoma (A673), rhabdomyosarcoma (Rd and RH4) and neuroblastoma (LAN-1 and SK-N-JD cell lines and HSJD-NB-004, HSJD-NB-005 and HSJD-NB-016 patient-derived cell models). Briefly, between 3000 and 30,000 cancer cells were cultured in 96 well plates and 24 h later the cells were exposed to compound SN38-linker A-MiniAp4 (Ia) (concentration range 1-0.00000001 μM), SN38 (concentration range 1-0.00000001 μM), or irinotecan (concentration range 100-0,000001 μM). To add the drugs to the cells in culture, SN38-linker A-MiniAp4 (Ia) and irinotecan were prepared in culture medium from stock solutions at concentration 1 mg/mL in water. SN38 was prepared in culture medium from a stock solution at concentration 1 mg/mL in DMSO. The tetrazolium compound [3-(4,5-dimethylthiazol-2-yl)-5-(3-carboxymethoxyphenyl)-2-(4-sulfophenyl)-2H-tetrazolium] (MTS assay; Promega, Fitchburg, WI) was used to determine cell viability after 72 h incubation with the drugs. The concentrations of drug required to cause a reduction of 50% in cell proliferation (IC50 and 95% confidence intervals) were calculated with Graphpad Prism 8 software (La Jolla, CA). Activity curves were built for adult glioma cell lines U87 (FIG. 1) and U373 (FIG. 2), pediatric gliomas including DIPG models HSJD-DIPG-007 (FIG. 3) and HSJD-DIPG-011 (FIG. 4), and pediatric high-grade glioma model HSJD-GBM-001 (FIG. 5), retinoblastoma models HSJD-RBT-5 (FIG. 6), HSJD-RBT-7 (FIG. 7) and HSJD-RBT-14 (FIG. 8), Ewing sarcoma cell line A673 (FIG. 9), rhabdomyosarcoma cell lines Rd (FIG. 10) and RH4 (FIG. 11), neuroblastoma cell lines LAN-1 (FIG. 12) and SK-N-JD (FIG. 13) and neuroblastoma patient-derived cell models HSJD-NB-004 (FIG. 14), HSJD-NB-005 (FIG. 15) and HSJD-NB-016 (FIG. 16). The established IC50 values are in Table 3.
# The present inventors compared the activity of the new compound SN38 conjugated with MiniAp4 (SN38-linkerA-MiniAp4, example 7 also named G2B-001) and with SN38-linker B-THRre (comparative example 2). Original compound SN38 was used as reference. Cancer cell lines used in these experiments were pediatric gliomas including diffuse intrinsic pontine glioma HSJD-DIPG-007, and pediatric high-grade glioma HSJD-GBM-001. Briefly, 3000 cancer cells were cultured in 96 well plates and 24 h later the cells were exposed to compound compound (Ia) (concentration range 1-0.00000001 μM), SN38-Linker B-THRre (concentration range 1-0.00000001 μM), and SN38 (concentration range 1-0.00000001 μM). To add the drugs to the cells in culture, SN38-Linker A-MiniAp4 (Ia) and SN38-Linker B-THRre were prepared in culture medium from stock solutions at concentration 1 mg/mL in water. SN38 was prepared in culture medium from a stock solution at concentration 1 mg/mL in DMSO. The MTS assay was used to determine cell viability after 72 h incubation with the drugs. The concentrations of drug required to cause a reduction of 50% in cell proliferation (IC50 and 95% confidence intervals) were calculated with Graphpad Prism 8 software (La Jolla, CA). Activity curves were built for cells HSJD-DIPG-007 (FIG. 20) and HSJD-GBM-001 (FIG. 21). The established IC50 values are in Table 4.
# Cancer cell lines used in these experiments were pediatric gliomas including diffuse intrinsic pontine glioma HSJD-DIPG-007, and pediatric high-grade glioma HSJD-GBM-001. Briefly, 3000 cancer cells were cultured in 96 well plates and 24 h later the cells were exposed to compounds (Ia), comparative example 1 and comparative example 2 (concentration range 1-0.001 μM for each of them). […]
# [3] = test system: diffuse intrinsic pontine glioma HSJD-DIPG-007; assay: cells; settings: HSJD-DIPG-007, MTS, 72 h incubation
# Description: as §1, with “Briefly, between 3000 and 30,000 cancer cells were cultured in 96 well plates and 24 h later the cells were exposed to compound SN38-linker A-MiniAp4 (Ia) (concentration range 1-0.00000001 μM), SN38 (concentration range 1-0.00000001 μM), or irinotecan (concentration range 100-0,000001 μM).” left out, “The tetrazolium compound [3-(4,5-dimethylthiazol-2-yl)-5-(3-carboxymethoxyphenyl)-2-(4-sulfophenyl)-2H-tetrazolium] (MTS assay; Promega, Fitchburg, WI) was used to determine cell viability after 72 h incubation with the drugs. The concentrations of drug required to cause a reduction of 50% in cell proliferation (IC50 and 95% confidence intervals) were calculated with Graphpad Prism 8 software (La Jolla, CA).” left out
# Cancer cell lines used in these experiments were pediatric gliomas including diffuse intrinsic pontine glioma HSJD-DIPG-007, and pediatric high-grade glioma HSJD-GBM-001. […] To add the drugs to the cells in culture, SN38-Linker A-MiniAp4 (Ia) and SN38-Linker B-THRre were prepared in culture medium from stock solutions at concentration 1 mg/mL in water. SN38 was prepared in culture medium from a stock solution at concentration 1 mg/mL in DMSO. […] Activity curves were built for cells HSJD-DIPG-007 (FIG. 20) and HSJD-GBM-001 (FIG. 21).
# Cancer cell lines used in these experiments were pediatric gliomas including diffuse intrinsic pontine glioma HSJD-DIPG-007, and pediatric high-grade glioma HSJD-GBM-001. […] All compounds were prepared in culture medium from stock solutions at concentration 1 mg/mL in water. […] Activity curves were built for cells HSJD-DIPG-007 (FIG. 22) and HSJD-GBM-001 (FIG. 23).
# Cancer cell line used in these experiment was HSJD-DIPG-007.
# [4] = Stability in human plasma at 37° C. in vitro; assay type: in vitro ADME
# Protocol: To assess the stability of the SN38-linker A-MiniAp4 (Ia) (example 7) in human, mouse, dog and rat plasma at 37° C., the compound was prepared at 200 μM in plasma samples in triplicates at each timepoint (0 h, 1 h, 4 h, 8 h and 24 h) for each species. Once the incubation was finalised, plasma proteins were immediately precipitated by adding chilly methanol (ratio 4:1, methanol:plasma) and tubes were shacked for few seconds (vortex). Samples were centrifuged at 3,000 rpm for 30 minutes at 4° C., supernatants were collected, transferred to the injection plate and injected to LC-MS system.
# Compound recovery was determined by comparing the analyte response in a biological sample that is spiked with the analyte and processed, with the response in a methanol sample that is spiked with the analyte and processed.
# Plasma stability assay was performed using blank plasma from untreated volunteers/animals. K2-EDTA was used as anticoagulant. Human blank plasma used was obtained from Hospital Sant Pau, mouse blank plasma used was obtained from Janvier, dog blank plasma used was obtained from Isoquimen and rat blank plasma used were obtained from Draconis Pharma.
# To assess the stability of the G2B-001 lineal (Ib) (example 16) in human plasma at 37° C., the compound was prepared at 200 µM in plasma samples in triplicates at each timepoint (0 h, 0.5 h, 1 h, 2 h, 4 h, 8 h and 24 h). Once the incubation was finalised, plasma proteins were immediately precipitated by adding chilly methanol (ratio 4:1, methanol:plasma) and tubes were shacked for few seconds (vortex). Samples were centrifuged at 3,000 rpm for 30 minutes at 4° C., supernatants were collected, transferred to the injection plate and injected to LC-MS system. Compound recovery was determined by comparing the analyte response in a biological sample that is spiked with the analyte and processed, with the response in a methanol sample that is spiked with the analyte and processed.
# Plasma stability assay was performed using blank plasma from untreated volunteers. K2-EDTA was used as anticoagulant. Human blank plasma used was obtained from Hospital Sant Pau.
# [5] = test system: patient-derived xenograft of neuroblastoma HSJD-NB-013; settings: 6 doses of 100 mg/kg intravenous at days 1, 2, 3, 4, 5 and 8; one mouse, two tumors; until day 44
smiles,measurement,setting,value
CCc1c2c(nc3ccc(OC(=O)OCc4ccc(NC(=O)[C@H](CCCNC(N)=O)NC(=O)[C@@H](NC(=O)COCC(=O)N[C@H]5CNC(=O)C[C@@H](C(N)=O)NC(=O)[C@H](CC(C)C)NC(=O)[C@H](C)NC(=O)[C@H]([C@@H](C)O)NC(=O)[C@H](CCC(=O)O)NC(=O)[C@@H]6CCCN6C(=O)[C@H](C)NC(=O)[C@H](CCCCN)NC5=O)C(C)C)cc4)cc13)-c1cc3c(c(=O)n1C2)COC(=O)[C@]3(O)CC [G2B-004 (Id)] (X6-[Dap]KAPETALD-NH2; lactam 1-9),solubility in water,[1],good solubility
"CCc1c2c(nc3ccc(O)cc13)-c1cc3c(c(=O)n1C2)COC(=O)[C@@]3(CC)OC(=O)CCC(=O)N1CCC[C@@H]1C(=O)N[C@H](Cc1c[nH]c2ccccc12)C(=O)N[C@@H](C(=O)N1CCC[C@@H]1C(=O)N[C@H](CO)C(=O)N[C@H](Cc1c[nH]c2ccccc12)C(=O)N[C@H](CCSC)C(=O)N1CCC[C@@H]1C(=O)N1CCC[C@@H]1C(=O)N[C@H](CCCNC(=N)N)C(=O)N[C@H](Cc1c[nH]cn1)C(=O)N[C@@H](C(N)=O)[C@H](C)O)C(C)C [Comparative Example 2, reference compound] (X2-[dP][dW][dV][dP][dS][dW][dM][dP][dP][dR][dH][dT]-NH2; N-terminus and C-terminus assumed)",IC50,[2],60.6 nM
same,IC50,"[3]; read-out: IC50 values of compounds, Example 11, Table 4",104 nM
CCc1c2c(nc3ccc(O)cc13)-c1cc3c(c(=O)n1C2)COC(=O)[C@@]3(CC)OC(=O)CCCCn1cc(CCCC(=O)NCCCOCCOCCOCCSCNC(=O)CCC(=O)NC(CN)C(=O)NC(CCCCN)C(=O)NC(C)C(=O)N2CCCC2C(=O)NC(CCC(=O)O)C(=O)NC(C(=O)NC(C)C(=O)NC(CC(C)O)C(=O)NC(CC(N)=O)C(N)=O)C(C)O)nn1 (stereo partly shown) [G2B-001 lineal (Ib)] ({X3-Suc}-[ξDap][ξK][ξA][ξP][ξE][ξT][ξA][X4][ξN]-NH2),half-life at 200 μM,[4],> 24 h
same,"recovery at 24 h, 200 μM","[4]; 24 h, read-out: % Recovery after 24 h in human plasma",69.9%
same,solubility in water,[1],good solubility
same,IC50,"[3]; read-out: IC50 values, Example 25, Table 8",36.8 nM
CCc1c2c(nc3ccc(OC(=O)CCCCn4cc(CCCC(=O)NCCCOCCOCCOCCSCNC(=O)CCC(=O)NC5CNC(=O)CC(C(N)=O)NC(=O)C(CC(C)O)NC(=O)C(C)NC(=O)C(C(C)O)NC(=O)C(CCC(=O)O)NC(=O)C6CCCN6C(=O)C(C)NC(=O)C(CCCCN)NC5=O)nn4)cc13)-c1cc3c(c(=O)n1C2)COC(=O)[C@]3(O)CC (stereo partly shown) [G2B-003 (Ic)] ({X5-Suc}-[ξDap][ξK][ξA][ξP][ξE][ξT][ξA][X4][ξD]-NH2; lactam 1-9),solubility in water,[1],good solubility
same,antitumor response (tumor volume),[5],measurable and long lasting antitumor response
CCC[C@H](NC(=O)CNC(=O)Oc1ccc2nc3c(c(CC)c2c1)Cn1c-3cc2c(c1=O)COC(=O)[C@]2(O)CC)C(=O)N1CCC[C@H]1C(=O)NCC(=O)N[C@H]1CNC(=O)C[C@@H](C(N)=O)NC(=O)[C@H](CC(C)C)NC(=O)[C@H](C)NC(=O)[C@H]([C@@H](C)O)NC(=O)[C@H](CCC(=O)O)NC(=O)[C@@H]2CCCN2C(=O)[C@H](C)NC(=O)[C@H](CCCCN)NC1=O [G2B-005 (Ie)] (X7-G[Nva]PG[Dap]KAPETALD-NH2; lactam 5-13),solubility in water,[1],good solubility
